According to patent US20250289891A1 (AUTOLUS, published 2025):
One block for each binder: values may come before it.

Experiments:
[1] = target: T1, Plate bound FcRH5 antigen (UniProt Q96RD9); test: cell-based or functional assay
T1 sequence (looked up): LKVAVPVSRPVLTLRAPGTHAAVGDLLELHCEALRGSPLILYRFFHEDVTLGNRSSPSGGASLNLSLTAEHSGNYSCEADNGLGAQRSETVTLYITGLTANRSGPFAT

[2] = target: T2, Recombinant purified FcRH5 Ig-8 domain (UniProt Q96RD9 743-850, limits assumed); test: SPR, Biacore 8k, VHH-mIgG2a Fc captured by anti-mouse kit on CM5, FcRH5 Ig8 as analyte (500 nM, 2-fold dilutions), 1:1 Langmuir fit, 25 C
T2 construct: domain: Ig8
T2 sequence (looked up): T1 sequence (looked up)
Method: (§1) Recombinant anti-FcRH5 antibodies in mouse IgG2a format were captured on flow cell 2 on a Series S CM5 chip (GE Healthcare), functionalised with anti-mouse capture kit according to manufacturer's recommendations (GE Healthcare). Antibodies were captured to a density of 160 RU using a Biacore 8k instrument. HBS-P+ buffer was used as running buffer in all experimental conditions. Recombinant purified FcRH5 Ig-8 domain at known concentrations (500 nM with 2-fold serial dilutions) used as the ‘analyte’ and injected over the respective flow cells with 150s contact time and 500s dissociation at 30 μl/minute of flow rate with a constant temperature of 25° C. In each experiment, flow cell 1 was unmodified and used for reference subtraction. A ‘0 concentration’ sensogram of buffer alone was used as a double reference subtraction to factor for drift. Data were fit to a 1:1 Langmuir binding model. Since a capture system was used, a local maximal analytical response (Rmax) parameter was used for the data fitting in each case.

[3] = target: T2, Recombinant purified FcRH5 Ig-8 domain; test: SPR, Biacore 8k, VHH-mIgG2a Fc captured, FcRH5 Ig8 as analyte, 1:1 Langmuir fit, 25 C; footnote: kd outside instrument limits
Method: as §1

- kon [2]: 48600 M⁻¹ s⁻¹
- Kd [3]: < 0.206 nM
- koff [3]: < 1e-05 s⁻¹
B4: Anti-FcRH5 VHH-Fc AU60387 (AbVec.aFcRH5.dAb-MIgG2a-Fc.Clone.C01) (Fc fusion)
chain: QVQLQESGGGLVQAGGSLRLSCAASGRTFSTYGMGWFRQAPGKEREFVAAISRSGGATAYAASVKGRFTISRDDVKNTLYLQMNSLKPEDTAVYHCAGTRRAFSTGLRDYDYWGQGIQVTVS
notes: VHH fused to murine IgG2a Fc; not shown: murine IgG2a Fc domain

- kon [2]: 50000 M⁻¹ s⁻¹
- Kd [3]: < 0.2 nM
- koff [3]: < 1e-05 s⁻¹
B6: Anti-FcRH5 VHH-Fc AU60390 (AbVec.aFcRH5.dAb-MIgG2a-Fc.Clone.C06) (Fc fusion)
chain: QVQLQQSGGGLVQAGDSLRLSCAASGRTFSNSTMGWFRQAPGKERKFVAVISWSGGTYAYAESVKGRFTISRDNAKNTVYLQMNSLKPEDTAVYYCAAARKGWSTRGDDYDYWGQGTQVTVS
notes: not shown: murine IgG2a Fc domain

Second part, the binder before the results:

B1: Anti-FcRH5 VHH-CAR 66843 (VHH of AU60382), on Jurkat T cells (protein, not shown: large carriers)
chain: QVQLQESGGGLVQAGGSLIVSCAASGRTFSINAMAWFRQAPGKEREFVAAIGGSGRVSSTSYADFVKGRFTISRDNAKNTVYLRMNNLEPEDTAVYYCAARRDYLPFPPESYDYWGQGTQVTVA
- EC50 (µg/ml) of percentage Nur77 activation by plate bound FcRH5 antigen (µg/ml FcRH5 coating) [1]: 1.97
- Nur77-mClover positive cells after 24 h 10 µg/ml (% upregulation) [1]: 29.7%

B2: Anti-FcRH5 VHH-CAR 66842 (VHH of AU60370), on Jurkat T cells (protein, not shown: large carriers)
chain: QVQLQESGGGSVQPGGSLSLSCAASGFTFSNYAMSWVRQAPGKGPEWVAVINSDGGTASSAGSVRGRFTISRDNAKNTLYLQMNRLKPEDTAVYYCAANRGFCAGVRCLEYQYWGQGTQVTVS
- EC50 (µg/ml) of percentage Nur77 activation by plate bound FcRH5 antigen (µg/ml FcRH5 coating) [1]: 1.46
- Nur77-mClover positive cells after 24 h 10 µg/ml (% upregulation) [1]: 36.8%

B3: Anti-FcRH5 VHH-CAR 66840 (VHH of AU60471), on Jurkat T cells (protein, not shown: large carriers)
chain: QVQLQESGGGLVQAGGSLRLSCAASGSIFSINAMGWYRQAPGKQRELVAFITSGGSTNYADSVKGRFTISRDNAKNTVYLQMNSLKPEDTAVYYCNALGGFVPSYGWGQGTQVTVS
- EC50 (µg/ml) of percentage Nur77 activation by plate bound FcRH5 antigen (µg/ml FcRH5 coating) [1]: 1.62
- Nur77-mClover positive cells after 24 h 10 µg/ml (% upregulation) [1]: 40.7%

B5: Anti-FcRH5 VHH-CAR 66833 (VHH of AU60464), on Jurkat T cells (protein, not shown: large carriers)
chain: QVQLQQSGGGLVQPGGSLRLSCAAPGNIFRLNGTGWYRQAPGKQRELVAHITSGGNTDYADSVKGRFTISRDNAKNTVYLQMNSLKPEDTAVYYCNAIPFRLSWGQGTQVTVS
- EC50 (µg/ml) of percentage Nur77 activation by plate bound FcRH5 antigen (µg/ml FcRH5 coating) [1]: 1.31
- Nur77-mClover positive cells after 24 h 10 µg/ml (% upregulation) [1]: 26.6%
